In US20220267377A1:
Non-standard residues stand in square brackets, D forms with d. Primed or numbered codes have the meaning given here. No end group written: not given here. *: point of attachment. PEG8′ = polyethylene glycol linker with an average of 8 ethylene glycol units; fluorPhe = fluorinated phenylalanine; Palmitoyl = CCCCCCCCCCCCCCCC(=O)*; Tic = O=C(O)[C@@H]1Cc2ccccc2CN1; Aad = N[C@@H](CCCC(=O)O)C(=O)O; Nle = CCCC[C@H](N)C(=O)O; Nva = CCC[C@H](N)C(=O)O

T1: human Chemokine-like receptor 1, CMKLR1 (ProLink (PK) tagged GPCR in PathHunter β-Arrestin cells) (human) (UniProt Q99788)
T1 sequence: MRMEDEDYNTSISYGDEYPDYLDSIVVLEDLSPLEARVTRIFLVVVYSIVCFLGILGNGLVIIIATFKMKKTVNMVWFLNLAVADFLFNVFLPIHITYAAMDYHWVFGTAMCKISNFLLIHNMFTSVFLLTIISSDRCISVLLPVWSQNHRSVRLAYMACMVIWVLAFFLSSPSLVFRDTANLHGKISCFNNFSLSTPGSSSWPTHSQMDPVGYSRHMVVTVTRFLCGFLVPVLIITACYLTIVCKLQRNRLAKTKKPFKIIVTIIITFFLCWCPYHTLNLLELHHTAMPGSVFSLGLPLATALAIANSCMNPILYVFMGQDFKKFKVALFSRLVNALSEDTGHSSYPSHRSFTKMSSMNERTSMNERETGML


The binders below were run against T1, human Chemokine-like receptor 1, CMKLR1 (ProLink (PK) tagged GPCR in PathHunter β-Arrestin cells) (human).

Binder | EC50, PathHunter β-Arrestin recruitment assay, agonist format [nM]
{Palmitoyl-PEG8′}-[dA]G[dY]F[Nle]P[dS]QF[dA][Tic][dA] [OK-102] | 2.3
{Palmitoyl-PEG8′}-GGFF[Nle]PSQFA[Tic][dS] [OK-116] | 63.9
{Palmitoyl-PEG8′}-[dA]G[dY]F[Nle]P[dS]Q[fluorPhe][dA][Tic][dA] (also: fluorPhe9: fluorine position not given here) [OK-112] | 1.4
{Palmitoyl-PEG8′}-AGYF[Nle]PTNFA[Tic][dA] [OK-105] | 203
{Palmitoyl-PEG8′}-AAYF[Nle]PSQY[dA]F[dA] [OK-107] | 1710
{Palmitoyl-PEG8′}-[Nva]G[dY]F[Nle]P[dS]QF[dA][Tic][dA] [OK-113] | < 0.5
{Palmitoyl-PEG8′}-GG[dY]FLP[dS]QF[dA][Tic]S [OK-101] | 2.6

Next, values leading:

EC50, PathHunter β-Arrestin recruitment assay, agonist format [nM] | Binder
2.6 | {Palmitoyl-PEG8′}-AAFY[Nle]PSQYA[Tic][dA] [OK-104]
< 0.5 | {Palmitoyl-PEG8′}-AG[dY]F[Nle]P[dS][Aad]FA[Tic][dA] [OK-109]
12.4 | {Palmitoyl-PEG8′}-AGFF[Nle]PSQFA[Tic][dA] [OK-115]
32.5 | {Palmitoyl-PEG8′}-AAFY[Nle]PTQFA[Tic][dA] [OK-106]
43 | {Palmitoyl-PEG8′}-AAYF[Nle]PSQFA[Tic][dA] [OK-103]
15 | {Palmitoyl-PEG8′}-[dA]G[dY]F[Nle]P[dS][Aad]F[dA][Tic][dA] [OK-111]
< 0.5 | {Palmitoyl-PEG8′}-AG[dY]F[Nle]P[dS]QFA[Tic][dS] [OK-114]
